# Experimental data taken from patent US20170298121A1 (GlaxoSmithKline, published 2017).
# Target: T1, Rat Serum Albumin (rat, UniProt P02770 25-608)
# T1 construct: Bought purified serum albumin; coupled to CM5 chips for BiaCore; also called RSA; rat SA
# Test: SPR (BiaCore)
# T1 sequence (P02770 25-608 limits assumed): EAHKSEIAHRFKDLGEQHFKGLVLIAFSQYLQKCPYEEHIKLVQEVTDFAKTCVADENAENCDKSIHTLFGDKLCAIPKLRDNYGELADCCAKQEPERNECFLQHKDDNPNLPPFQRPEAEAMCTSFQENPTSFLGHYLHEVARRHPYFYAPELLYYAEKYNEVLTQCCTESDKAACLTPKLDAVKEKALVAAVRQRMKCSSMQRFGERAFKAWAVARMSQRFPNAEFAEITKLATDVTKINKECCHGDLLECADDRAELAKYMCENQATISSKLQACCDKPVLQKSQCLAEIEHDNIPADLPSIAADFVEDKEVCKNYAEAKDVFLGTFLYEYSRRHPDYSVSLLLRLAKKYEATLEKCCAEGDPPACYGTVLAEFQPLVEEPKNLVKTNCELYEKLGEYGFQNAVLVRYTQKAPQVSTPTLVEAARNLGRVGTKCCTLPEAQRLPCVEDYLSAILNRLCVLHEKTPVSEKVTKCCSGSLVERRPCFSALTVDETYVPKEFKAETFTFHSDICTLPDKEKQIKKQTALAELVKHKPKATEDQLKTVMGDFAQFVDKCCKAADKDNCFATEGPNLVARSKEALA
row,fold decrease in affinity against the unfused ALBUDAB,Binder
1,2 fold,"DOM7h-11-12/DOM1m-21-23 fusion DMS number 5516 (other, DOM1m-21-23 - ASTSGPS - DOM7h-11-12 - myc tag; also called DMS5516) EVQLLESGGGLVQPGGSLRLSCAASGFTFNRYSMGWLRQAPGKGLEWVSRIDSYGRGTYYEDPVKGRFSISRDNSKNTLYLQMNSLRAEDTAVYYCAKISQFGSNAFDYWGQGTQVTVSSASTSGPSDIQMTQSPSSLSASVGDRVTITCRASRPIGTMLSWYQQKPGKAPKLLILFGSRLQSGVPSRFSGSGSGTDFTLTISSLQPEDFATYYCAQAGTHPTTFGQGTKVEIKRAAAEQKLISEEDLN"
2,2 fold,"DOM7h-11-15/DOM1m-21-23 fusion DMS number 5517 (other, DOM1m-21-23 - ASTSGPS - DOM7h-11-15 - myc tag; also called DMS5517; DOM1m21-23-DOM7h11-15) EVQLLESGGGLVQPGGSLRLSCAASGFTFNRYSMGWLRQAPGKGLEWVSRIDSYGRGTYYEDPVKGRFSISRDNSKNTLYLQMNSLRAEDTAVYYCAKISQFGSNAFDYWGQGTQVTVSSASTSGPSDIQMTQSPSSLSASVGDRVTITCRASRPIGTMLSWYQQKPGKAPKLLILAFSRLQSGVPSRFSGSGSGTDFTLTISSLQPEDFATYYCAQAGTHPTTFGQGTKVEIKRAAAEQKLISEEDLN"
